Experimental data as given in publication PMC9482650, “Quantitative fragmentomics allow affinity mapping of interactomes” (Nature Communications, 2022).

Experiments:
Assay in all cases: holdup assay
Set-up in all cases: key: below the threshold = too weak to quantify, mostly under pKd 3.1 to 4
[1] = target: MAGI1_6, Q96QZ7
[2] = target: PTPN13_2, Q12923
[3] = target: SCRIB_4, Q14160
[4] = target: T1, PDZD2_3, O15018
T1 sequence (O15018 581-682, limits assumed, looked up): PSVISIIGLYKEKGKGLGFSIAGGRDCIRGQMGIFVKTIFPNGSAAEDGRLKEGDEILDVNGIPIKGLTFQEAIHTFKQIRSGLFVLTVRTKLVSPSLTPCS

[5] = target: PARD3_1, Q8TEW0
Sequence of PARD3_1, Q8TEW0 (Q8TEW0 264-372): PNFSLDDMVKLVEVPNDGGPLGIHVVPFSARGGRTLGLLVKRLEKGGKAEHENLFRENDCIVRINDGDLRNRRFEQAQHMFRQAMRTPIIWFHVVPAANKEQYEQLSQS

[6] = target: T2, PTPN4, P29074
T2 sequence (P29074 512-599, limits assumed, looked up): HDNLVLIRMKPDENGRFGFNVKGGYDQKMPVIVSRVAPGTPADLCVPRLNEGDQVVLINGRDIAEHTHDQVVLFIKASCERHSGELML

[7] = target: T3, PDZD4, Q76G19
T3 sequence (Q76G19 125-224, limits assumed, looked up): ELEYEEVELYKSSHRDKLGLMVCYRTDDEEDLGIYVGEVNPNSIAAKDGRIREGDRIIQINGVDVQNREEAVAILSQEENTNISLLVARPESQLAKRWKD

[8] = target: T4, PDZD7_1, Q9H5P4
T4 sequence (Q9H5P4 81-178, limits assumed, looked up): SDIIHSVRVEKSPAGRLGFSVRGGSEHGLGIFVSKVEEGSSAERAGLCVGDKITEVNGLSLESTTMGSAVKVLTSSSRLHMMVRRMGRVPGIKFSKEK

[9] = target: MAGI1_5, Q96QZ7
Sequence of MAGI1_5, Q96QZ7 (Q96QZ7 986-1098): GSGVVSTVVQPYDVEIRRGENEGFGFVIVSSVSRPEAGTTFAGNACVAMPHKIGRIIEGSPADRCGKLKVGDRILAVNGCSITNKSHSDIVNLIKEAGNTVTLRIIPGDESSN

[10] = target: T5, PDLIM3, Q53GG5
T5 sequence (Q53GG5 1-94, limits assumed, looked up): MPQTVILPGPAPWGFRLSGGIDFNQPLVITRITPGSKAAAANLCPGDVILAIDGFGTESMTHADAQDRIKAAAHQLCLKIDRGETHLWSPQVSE

[11] = target: RIMS1, Q86UR5
Sequence of RIMS1, Q86UR5 (Q86UR5 584-692): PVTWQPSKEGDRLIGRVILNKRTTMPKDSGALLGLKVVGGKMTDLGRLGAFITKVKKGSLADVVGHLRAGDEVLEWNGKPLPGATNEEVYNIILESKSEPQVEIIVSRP

[12] = target: T6, MPP1, Q00013
T6 sequence (Q00013 66-162, limits assumed, looked up): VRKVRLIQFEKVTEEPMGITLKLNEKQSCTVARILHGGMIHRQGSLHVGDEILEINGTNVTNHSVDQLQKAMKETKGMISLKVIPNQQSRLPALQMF

[13] = target: T7, MPDZ_2, O75970
T7 sequence (O75970 252-347, limits assumed, looked up): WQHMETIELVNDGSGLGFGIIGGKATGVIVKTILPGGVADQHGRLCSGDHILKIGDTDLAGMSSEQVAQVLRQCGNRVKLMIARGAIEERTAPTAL

[14] = target: NHERF2_1, Q15599
Sequence of NHERF2_1, Q15599 (Q15599 9-91): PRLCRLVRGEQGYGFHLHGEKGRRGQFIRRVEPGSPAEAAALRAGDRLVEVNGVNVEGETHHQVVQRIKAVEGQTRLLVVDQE

[15] = target: T8, SHANK3, Q9BYB0
T8 sequence (Q9BYB0 641-750, limits assumed, looked up): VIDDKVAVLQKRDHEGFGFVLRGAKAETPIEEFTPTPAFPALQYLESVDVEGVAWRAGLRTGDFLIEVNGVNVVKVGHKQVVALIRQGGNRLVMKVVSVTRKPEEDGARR

[16] = target: T9, PDZD8, Q8NEN9
T9 sequence (Q8NEN9 361-459, limits assumed, looked up): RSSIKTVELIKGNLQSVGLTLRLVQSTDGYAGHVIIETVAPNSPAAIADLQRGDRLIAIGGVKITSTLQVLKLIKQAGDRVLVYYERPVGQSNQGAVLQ

[17] = target: PARD3B_3, Q8TEW8
Sequence of PARD3B_3, Q8TEW8 (Q8TEW8 490-594): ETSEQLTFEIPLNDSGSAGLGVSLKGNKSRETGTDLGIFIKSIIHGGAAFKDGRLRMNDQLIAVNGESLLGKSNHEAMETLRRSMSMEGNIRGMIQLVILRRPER

[18] = target: SDCBP_1, O00560
Sequence of SDCBP_1, O00560 (O00560 111-198): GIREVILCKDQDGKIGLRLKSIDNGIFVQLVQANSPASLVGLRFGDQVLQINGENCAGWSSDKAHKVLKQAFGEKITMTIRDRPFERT

[19] = target: MAGI3_3, Q5TCQ9
Sequence of MAGI3_3, Q5TCQ9 (Q5TCQ9 572-655): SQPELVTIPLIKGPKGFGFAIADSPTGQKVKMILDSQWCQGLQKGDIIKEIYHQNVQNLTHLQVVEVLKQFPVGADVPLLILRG

[20] = target: T10, PARD6G, Q9BYG4
T10 sequence (Q9BYG4 153-261, limits assumed, looked up): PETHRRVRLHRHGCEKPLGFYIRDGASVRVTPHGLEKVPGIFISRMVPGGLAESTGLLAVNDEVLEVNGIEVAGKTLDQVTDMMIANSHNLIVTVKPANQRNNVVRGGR

[21] = target: T11, SIPA1L3, O60292
T11 sequence (O60292 961-1052, limits assumed, looked up): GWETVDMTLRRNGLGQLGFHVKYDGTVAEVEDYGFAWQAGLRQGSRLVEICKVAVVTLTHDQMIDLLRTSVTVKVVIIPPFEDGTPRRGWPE

[22] = target: T12, SHROOM4, Q9ULL8
T12 sequence (Q9ULL8 5-102, limits assumed, looked up): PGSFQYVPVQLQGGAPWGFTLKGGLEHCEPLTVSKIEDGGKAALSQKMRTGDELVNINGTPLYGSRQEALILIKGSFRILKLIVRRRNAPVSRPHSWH

[23] = target: T13, MPDZ_7, O75970
T13 sequence (O75970 1146-1253, limits assumed, looked up): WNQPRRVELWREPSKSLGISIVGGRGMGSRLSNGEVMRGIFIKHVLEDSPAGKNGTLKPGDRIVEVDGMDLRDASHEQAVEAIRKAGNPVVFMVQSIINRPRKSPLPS

[24] = target: TJP1_1, Q07157
Sequence of TJP1_1, Q07157 (Q07157 18-120): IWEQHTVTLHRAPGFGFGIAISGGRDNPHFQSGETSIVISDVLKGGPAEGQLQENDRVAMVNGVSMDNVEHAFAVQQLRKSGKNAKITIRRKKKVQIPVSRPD

[25] = plain residues with an end cap or a label only (N-terminal biotin on a linker: (peg)3)
[26] = modified: acetyl on K at position -1 from the C-terminal residue
[27] = modified: phospho on S at position -3 from the C-terminal residue

Sequence of PTPN13_2, Q12923 (Q12923 1363-1462): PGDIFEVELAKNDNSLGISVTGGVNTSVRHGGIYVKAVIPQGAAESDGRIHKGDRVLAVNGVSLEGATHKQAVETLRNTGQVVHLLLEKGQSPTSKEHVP
Sequence of MAGI1_6, Q96QZ7 (Q96QZ7 1146-1238): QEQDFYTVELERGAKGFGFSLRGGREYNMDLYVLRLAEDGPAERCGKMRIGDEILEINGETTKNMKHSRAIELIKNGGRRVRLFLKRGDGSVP
Sequence of SCRIB_4, Q14160 (Q14160 1095-1204): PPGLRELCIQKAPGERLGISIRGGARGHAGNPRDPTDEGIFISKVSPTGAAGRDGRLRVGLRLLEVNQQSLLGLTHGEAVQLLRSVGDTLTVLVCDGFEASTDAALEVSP

YDEPTTTTSVPL [SARS-Cov2-3a, P0DTC3]
pKd [1, 25]: below the threshold
pKd [2, 25]: below the threshold
pKd [3, 25]: below the threshold
pKd [4, 25]: below the threshold
pKd [5, 25]: 3.98
pKd [6, 25]: below the threshold
pKd [7, 25]: below the threshold
pKd [8, 25]: below the threshold
pKd [9, 25]: 3.76
pKd [10, 25]: below the threshold
pKd [11, 25]: below the threshold
pKd [12, 25]: below the threshold
pKd [13, 25]: below the threshold
pKd [14, 25]: below the threshold
pKd [15, 25]: below the threshold
pKd [16, 25]: below the threshold
pKd [17, 25]: below the threshold
pKd [18, 25]: below the threshold
pKd [19, 25]: below the threshold
pKd [20, 25]: below the threshold
pKd [21, 25]: below the threshold
pKd [22, 25]: below the threshold
pKd [23, 25]: below the threshold
pKd [24, 25]: below the threshold

DEDQHTQITKV [PTEN_Ac, P60484]
pKd [1, 26]: below the threshold
pKd [2, 26]: below the threshold
pKd [3, 26]: below the threshold
pKd [4, 26]: below the threshold
pKd [5, 26]: below the threshold
pKd [6, 26]: below the threshold
pKd [7, 26]: below the threshold
pKd [8, 26]: below the threshold
pKd [9, 26]: 4.84
pKd [10, 26]: below the threshold
pKd [11, 26]: below the threshold
pKd [12, 26]: below the threshold
pKd [13, 26]: 4.3
pKd [14, 26]: below the threshold
pKd [15, 26]: 4.04
pKd [16, 26]: below the threshold
pKd [17, 26]: below the threshold
pKd [18, 26]: below the threshold
pKd [19, 26]: below the threshold
pKd [20, 26]: below the threshold
pKd [21, 26]: below the threshold
pKd [22, 26]: below the threshold
pKd [23, 26]: 4.8
pKd [24, 26]: 3.94

RRVRKLPSTTL [RPS6KA1_-3P, Q15418]
pKd [1, 27]: below the threshold
pKd [2, 27]: below the threshold
pKd [3, 27]: below the threshold
pKd [4, 27]: below the threshold
pKd [5, 27]: below the threshold
pKd [6, 27]: 3.54
pKd [7, 27]: below the threshold
pKd [8, 27]: below the threshold
pKd [9, 27]: below the threshold
pKd [10, 27]: below the threshold
pKd [11, 27]: below the threshold
pKd [12, 27]: below the threshold
pKd [13, 27]: below the threshold
pKd [14, 27]: below the threshold
pKd [15, 27]: below the threshold
pKd [16, 27]: below the threshold
pKd [17, 27]: below the threshold
pKd [18, 27]: below the threshold
pKd [19, 27]: below the threshold
pKd [20, 27]: below the threshold
pKd [21, 27]: below the threshold
pKd [22, 27]: below the threshold
pKd [23, 27]: 3.63
pKd [24, 27]: below the threshold
